Where two headings read alike, the source gives them in different places.
How the values were obtained:
[1] = target: two-chain factor VII-activating protease (tcFSAP) (human); experiment: enzyme inhibition kinetics
[2] = target: two-chain factor VII-activating protease (tcFSAP) (human); experiment: enzyme inhibition kinetics; remark: listed apart in the source
[3] = target: two-chain factor VII-activating protease (tcFSAP) (human); experiment: enzyme inhibition kinetics; remark: listed apart in the source
[4] = target: two-chain factor VII-activating protease (tcFSAP) (human); experiment: SDS-stable complex formation, SDS-PAGE and Western blot
[5] = target: two-chain factor VII-activating protease (tcFSAP) (human); experiment: enzyme inhibition kinetics; remark: listed apart in the source
[6] = target: two-chain factor VII-activating protease (tcFSAP) (human); experiment: enzyme inhibition kinetics; remark: listed apart in the source

recombinant human wild-type plasminogen activator inhibitor-1 (PAI-1) (from UniProt P05121 24-402) (natural protein)
second-order inhibition rate constant Ka [1]: 338000 M⁻¹ s⁻¹
second-order inhibition rate constant Ka [2]: 443000 M⁻¹ s⁻¹
second-order inhibition rate constant Ka [3]: 623000 M⁻¹ s⁻¹
stoichiometry N [4]: 1
second-order inhibition rate constant Ka [5]: 558000 M⁻¹ s⁻¹
second-order inhibition rate constant Ka [6]: 1.61e+06 M⁻¹ s⁻¹

— article PMC8025756
